Broadly, the stoichiometry N is a count of units in the complex or per binding partner.

The results in this text go back to paper PMC11291478, “Molecular and structural basis of an ATPase-nuclease dual-enzyme anti-phage defense complex” (Cell Research, 2024).

Values joined by “and” are separate entries in the source; they are usually repeats but may differ in a detail not shown here. Identical values can stand only once.

Test [1] deals with T1, DUF4297–HerA complex (Escherichia coli, UniProt A0ABF7PQ56).
T1 construct: gene CG692_10950; co-expressed in E. coli BL21(DE3) from pET28a, His tag at N-terminus of DUF4297; about 1 MDa complex of 12 DUF4297 and 6 HerA; with DUF4297 domain-containing protein (dsDNA endonuclease Cap4-like domain-containing anti-phage protein)
T1 sequence (A0ABF7PQ56 1-571): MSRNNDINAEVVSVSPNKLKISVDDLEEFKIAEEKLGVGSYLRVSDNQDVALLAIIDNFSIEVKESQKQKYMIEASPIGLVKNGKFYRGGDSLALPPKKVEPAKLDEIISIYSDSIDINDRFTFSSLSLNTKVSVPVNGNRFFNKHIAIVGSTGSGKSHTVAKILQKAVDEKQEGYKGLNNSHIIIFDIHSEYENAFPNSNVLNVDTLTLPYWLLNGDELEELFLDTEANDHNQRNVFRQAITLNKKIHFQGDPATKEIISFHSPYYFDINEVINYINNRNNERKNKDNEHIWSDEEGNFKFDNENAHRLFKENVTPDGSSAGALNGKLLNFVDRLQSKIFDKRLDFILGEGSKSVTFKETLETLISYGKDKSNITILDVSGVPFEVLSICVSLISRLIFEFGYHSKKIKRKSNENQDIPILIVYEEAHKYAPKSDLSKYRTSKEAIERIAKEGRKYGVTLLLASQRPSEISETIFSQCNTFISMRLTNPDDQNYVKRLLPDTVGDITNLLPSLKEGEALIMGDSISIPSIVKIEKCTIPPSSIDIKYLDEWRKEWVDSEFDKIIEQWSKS
T1 sequence (A0ABF7PQ57 1-394 partner): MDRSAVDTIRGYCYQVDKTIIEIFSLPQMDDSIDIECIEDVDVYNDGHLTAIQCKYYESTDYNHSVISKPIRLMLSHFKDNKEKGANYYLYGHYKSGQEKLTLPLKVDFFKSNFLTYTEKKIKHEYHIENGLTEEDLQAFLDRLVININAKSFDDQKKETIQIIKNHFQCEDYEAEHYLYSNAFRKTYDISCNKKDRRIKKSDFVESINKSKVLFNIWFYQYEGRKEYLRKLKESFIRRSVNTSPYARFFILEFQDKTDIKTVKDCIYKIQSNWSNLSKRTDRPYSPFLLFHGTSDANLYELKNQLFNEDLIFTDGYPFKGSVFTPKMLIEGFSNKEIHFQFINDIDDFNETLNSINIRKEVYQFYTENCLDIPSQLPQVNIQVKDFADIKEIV
In words: cryo-EM structure. The class given is binding. The note with it: with 59-bp dsDNA, 1 mM AMPPNP, 5 mM MgCl2; site at interface of RecA-like domains of adjacent HerA subunits; states 1 and 2.

The target of test [2] is T1, DUF4297–HerA complex. The experiment in a line: phosphate release, modified Baginski method. The note with it: 5 nM complex, 20 mM Tris-HCl pH 8.0, 50 mM NaCl, 5 mM MgCl2, 5 mM DTT, 37 °C. The class given is biochemical.
Test [3] has as its target DUF4297. In words: AUC; sedimentation velocity, 55,000 rpm, 4 °C, ~1 mg/mL, 20 mM Tris-HCl pH 8.0, 500 mM NaCl.
In test [4] the target is HerA. The experiment in a line: cryo-EM structure; co-expressed and purified DUF4297–HerA complex without nucleotide or DNA, ~1.0 mg/mL, C2 symmetry imposed, 2.87 Å.
In test [5] the target is DUF4297. The description is as above.
The target of test [6] is HerA. In words: cryo-EM structure; HerA alone, ~1.0 mg/mL, 3.14 Å.
Test [7] concerns the target HerA. In words: cryo-EM structure; purified DUF4297–HerA complex with 1 mM AMPPNP, 5 mM MgCl2 and 59-bp dsDNA (1:1.2); state 1 at 2.73 Å and state 2 at 2.92 Å.
The target of test [8] is DUF4297.

With `Nc1ncnc2c1ncn2[C@@H]1O[C@H](COP(=O)(O)OP(=O)(O)NP(=O)(O)O)[C@@H](O)[C@H]1O` [AMPPNP], at DUF4297–HerA complex [1], the cryo-EM structure result is listed as “three DNA-engaged subunits A–C bind ATP (AMPPNP in the structure)”.
`Nc1ncnc2c1ncn2[C@@H]1O[C@H](COP(=O)(O)OP(=O)(O)OP(=O)(O)O)[C@@H](O)[C@H]1O` [ATP]: the “phosphate release, modified Baginski method” value on DUF4297–HerA complex [2] is recorded as “the DUF4297–HerA complex exhibits a high turnover rate under the same testing condition”.
As to DUF4297 (enzyme), in the test with DUF4297 [3], the stoichiometry N was 2.
In the case of HerA (enzyme), the stoichiometry N in the test with HerA [4] was 6; in the test with HerA [6], 6 and 5; with HerA [7], 6. The stoichiometry N (DUF4297 per HerA) with DUF4297 [5] was 2. Further, the fold decrease in dsDNA nuclease activity of DUF4297 alone against the DUF4297–HerA complex with DUF4297 [8] came to 300 fold.
